# Experiments:
# 5HT3a = target: T1, 5HT3a (Homo sapiens, UniProt P46098); experiment: Ion channel panel (IonWorks Barracuda): 5HT3a; format: cell-based
# T1 construct: host or cells: HEK293 or CHO
# T1 sequence (P46098 whole entry, looked up): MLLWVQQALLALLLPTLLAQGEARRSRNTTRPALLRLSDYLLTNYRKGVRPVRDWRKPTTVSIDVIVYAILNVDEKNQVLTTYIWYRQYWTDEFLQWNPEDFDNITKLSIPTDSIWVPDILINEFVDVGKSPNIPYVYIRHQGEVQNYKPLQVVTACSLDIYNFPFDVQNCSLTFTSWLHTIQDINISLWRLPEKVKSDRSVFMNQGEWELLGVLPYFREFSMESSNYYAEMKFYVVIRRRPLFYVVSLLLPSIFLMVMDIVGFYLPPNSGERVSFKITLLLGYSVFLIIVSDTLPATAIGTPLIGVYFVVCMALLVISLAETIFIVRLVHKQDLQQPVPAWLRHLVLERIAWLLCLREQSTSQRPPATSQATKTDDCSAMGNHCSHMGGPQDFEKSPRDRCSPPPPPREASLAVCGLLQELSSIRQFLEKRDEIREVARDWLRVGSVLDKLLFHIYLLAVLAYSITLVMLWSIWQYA
# Procedure, shortened: (§1)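 Peptides were tested in duplicate at final 20 μM and 200 nM, with concentration set by amino acid analysis, in HEPES-buffered saline. They were applied for at least 5 min to HEK293 or CHO cells transfected with each channel. Currents were expressed as % inhibition, 1-(Ipeptide/Icontrol)×100, or % activation, Ipeptide/Icontrol×100, against a channel-matched reference compound.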
# α3β4 = target: T2, α3β4 (Homo sapiens, UniProt P30926+P32297); experiment: Ion channel panel (IonWorks Barracuda): α3β4; format: cell-based; conditions: 100% = no change, <100% = inhibition
# T2 construct: host or cells: HEK293 or CHO
# Procedure, shortened: as §1
# α4β2 = target: T3, α4β2 (Homo sapiens, UniProt P17787+P43681); experiment: Ion channel panel (IonWorks Barracuda): α4β2; format: cell-based; conditions: 100% = no change, <100% = inhibition
# T3 construct: host or cells: HEK293 or CHO
# Procedure, shortened: as §1
# Cav2.1 = target: T4, Cav2.1 (Homo sapiens, UniProt O00555); experiment: cell-based; conditions: 100% = no change, <100% = inhibition
# T4 construct: host or cells: HEK293 or CHO
# Procedure, shortened: as §1
# Cav2.2 = target: T5, Cav2.2 (Homo sapiens, UniProt Q00975); experiment: cell-based; conditions: 100% = no change, <100% = inhibition
# T5 construct: host or cells: HEK293 or CHO
# Procedure, shortened: as §1
# Kv2.1 = target: T6, Kv2.1 (Homo sapiens, UniProt Q14721); experiment: cell-based; conditions: 100% = no change, <100% = inhibition
# T6 construct: host or cells: HEK293 or CHO
# Procedure, shortened: as §1
# GABA = experiment: Ion channel panel (IonWorks Barracuda): GABA; format: cell-based; conditions: 100% = no change, <100% = inhibition
# Procedure, shortened: as §1
# Nav1.5 = Nav1.5 (Homo sapiens, UniProt Q14524); experiment: in vitro; conditions: 100% = no change; for Activity of Nav1.5 with peptide, expressed as a percentage of the reference compound: peptide at 0.2 μM; for Activity of Nav1.5 with peptide (percentage of the reference compound): peptide at 20 μM
# Procedure, shortened: as §1
# hERG = hERG (Homo sapiens, UniProt Q12809); experiment: in vitro; conditions: 100% = no change, <100% = inhibition
# Procedure, shortened: as §1
# Kir2.1 = target: T7, Kir2.1 (Homo sapiens, UniProt P63252); experiment: Ion channel panel (IonWorks Barracuda): Kir2.1; format: cell-based; conditions: 100% = no change, <100% = inhibition
# T7 construct: host or cells: HEK293 or CHO
# Procedure, shortened: as §1
# Kv1.1 = target: T8, Kv1.1 (Homo sapiens, UniProt Q09470); experiment: cell-based; format: cell-based; conditions: 100% = no change, <100% = inhibition
# T8 construct: host or cells: HEK293 or CHO
# Procedure, shortened: as §1
# Kv1.2 = target: T9, Kv1.2 (Homo sapiens, UniProt P16389); experiment: cell-based; format: cell-based; conditions: 100% = no change, <100% = inhibition
# T9 construct: host or cells: HEK293 or CHO
# Procedure, shortened: as §1
# Kv1.3 = target: T10, Kv1.3 (Homo sapiens, UniProt P22001); experiment: cell-based; format: cell-based; conditions: 100% = no change, <100% = inhibition
# T10 construct: host or cells: HEK293 or CHO
# Procedure, shortened: as §1
# Nav1.7 = target: T11, Nav1.7 (Homo sapiens, UniProt Q15858); experiment: cell-based; format: cell-based; conditions: 100% = no change; for Activity of Nav1.7 with peptide, expressed as a percentage of the reference compound: peptide at 0.2 μM; for Activity of Nav1.7 with peptide (percentage of the reference compound): peptide at 20 μM
# T11 construct: host or cells: HEK293 or CHO
# NR2A = target: T12, NR2A (Homo sapiens, UniProt Q12879); experiment: Ion channel panel (IonWorks Barracuda): NR2A; format: cell-based; conditions: 100% = no change, <100% = inhibition
# T12 construct: host or cells: HEK293 or CHO
# Procedure, shortened: as §1
# NR2B = target: T13, NR2B (Homo sapiens, UniProt Q13224); experiment: Ion channel panel (IonWorks Barracuda): NR2B; format: cell-based; conditions: 100% = no change, <100% = inhibition
# T13 construct: host or cells: HEK293 or CHO
# Procedure, shortened: as §1
# TRPA1 = target: T14, TRPA1 (Homo sapiens, UniProt O75762); experiment: Ion channel panel (IonWorks Barracuda): TRPA1; format: cell-based; conditions: 100% = no change, <100% = inhibition
# T14 construct: host or cells: HEK293 or CHO
# Procedure, shortened: as §1
# TRPV1 = target: T15, TRPV1 (Homo sapiens, UniProt Q8NER1); experiment: Ion channel panel (IonWorks Barracuda): TRPV1; format: cell-based; conditions: 100% = no change, <100% = inhibition
# T15 construct: host or cells: HEK293 or CHO
# Procedure, shortened: as §1
# [1] = first of two Nav1.5 columns (probably TP1)
# [2] = second of two Nav1.5 columns (probably TP2)
# [3] = first of two Nav1.7 columns (probably TP1)
# [4] = second of two Nav1.7 columns (probably TP2)
# Chain of Nav1.5 (Q14524 whole entry): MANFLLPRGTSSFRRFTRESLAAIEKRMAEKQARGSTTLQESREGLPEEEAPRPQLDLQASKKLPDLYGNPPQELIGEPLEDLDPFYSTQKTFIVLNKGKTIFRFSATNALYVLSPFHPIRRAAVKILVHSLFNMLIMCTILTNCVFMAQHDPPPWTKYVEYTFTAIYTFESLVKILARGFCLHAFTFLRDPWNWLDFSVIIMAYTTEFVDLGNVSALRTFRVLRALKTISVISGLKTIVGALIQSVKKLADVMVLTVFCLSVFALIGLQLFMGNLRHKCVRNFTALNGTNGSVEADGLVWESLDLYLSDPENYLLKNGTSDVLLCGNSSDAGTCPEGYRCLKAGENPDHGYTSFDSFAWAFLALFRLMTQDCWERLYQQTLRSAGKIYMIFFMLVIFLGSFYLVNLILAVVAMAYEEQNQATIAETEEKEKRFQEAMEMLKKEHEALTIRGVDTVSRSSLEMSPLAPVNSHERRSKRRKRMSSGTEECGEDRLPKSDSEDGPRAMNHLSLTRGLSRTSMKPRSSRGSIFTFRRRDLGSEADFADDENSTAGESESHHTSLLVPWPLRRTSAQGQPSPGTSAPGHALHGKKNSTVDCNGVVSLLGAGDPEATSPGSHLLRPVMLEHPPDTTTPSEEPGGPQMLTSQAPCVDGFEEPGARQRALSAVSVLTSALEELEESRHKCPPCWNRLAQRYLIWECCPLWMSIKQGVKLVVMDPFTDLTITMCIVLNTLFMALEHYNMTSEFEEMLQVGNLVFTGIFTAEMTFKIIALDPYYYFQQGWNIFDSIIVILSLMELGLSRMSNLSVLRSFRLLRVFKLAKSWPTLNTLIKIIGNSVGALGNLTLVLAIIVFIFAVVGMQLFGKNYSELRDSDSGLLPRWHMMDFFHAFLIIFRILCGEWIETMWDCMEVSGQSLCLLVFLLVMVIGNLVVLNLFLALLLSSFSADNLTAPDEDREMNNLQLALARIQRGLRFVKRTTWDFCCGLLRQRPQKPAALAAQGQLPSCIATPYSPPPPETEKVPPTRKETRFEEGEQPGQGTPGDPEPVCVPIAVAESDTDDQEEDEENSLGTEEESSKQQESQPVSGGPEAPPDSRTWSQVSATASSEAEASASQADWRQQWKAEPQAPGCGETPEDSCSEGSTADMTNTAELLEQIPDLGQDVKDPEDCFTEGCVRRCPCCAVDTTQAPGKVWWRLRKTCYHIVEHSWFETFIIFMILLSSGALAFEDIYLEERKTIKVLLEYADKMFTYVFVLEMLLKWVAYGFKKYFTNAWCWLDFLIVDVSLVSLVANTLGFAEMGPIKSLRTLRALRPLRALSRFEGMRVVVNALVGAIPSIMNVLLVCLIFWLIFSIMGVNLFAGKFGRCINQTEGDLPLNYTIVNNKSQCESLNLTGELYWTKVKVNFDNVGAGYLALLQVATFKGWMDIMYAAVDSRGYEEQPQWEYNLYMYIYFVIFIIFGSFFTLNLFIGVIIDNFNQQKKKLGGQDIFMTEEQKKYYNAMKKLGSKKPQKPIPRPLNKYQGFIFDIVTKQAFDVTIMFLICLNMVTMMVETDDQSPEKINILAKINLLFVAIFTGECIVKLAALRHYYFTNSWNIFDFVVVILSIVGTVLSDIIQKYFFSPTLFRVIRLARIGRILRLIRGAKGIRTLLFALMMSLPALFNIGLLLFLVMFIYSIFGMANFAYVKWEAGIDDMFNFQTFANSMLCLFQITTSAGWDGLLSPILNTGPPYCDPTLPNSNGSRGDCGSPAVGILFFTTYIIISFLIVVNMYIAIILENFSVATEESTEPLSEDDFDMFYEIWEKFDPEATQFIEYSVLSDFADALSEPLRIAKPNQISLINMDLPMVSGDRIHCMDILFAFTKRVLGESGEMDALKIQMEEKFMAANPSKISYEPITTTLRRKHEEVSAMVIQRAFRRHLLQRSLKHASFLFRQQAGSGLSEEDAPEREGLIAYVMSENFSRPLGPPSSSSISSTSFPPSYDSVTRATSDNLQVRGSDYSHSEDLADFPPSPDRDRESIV
# T11 sequence (Q15858 whole entry): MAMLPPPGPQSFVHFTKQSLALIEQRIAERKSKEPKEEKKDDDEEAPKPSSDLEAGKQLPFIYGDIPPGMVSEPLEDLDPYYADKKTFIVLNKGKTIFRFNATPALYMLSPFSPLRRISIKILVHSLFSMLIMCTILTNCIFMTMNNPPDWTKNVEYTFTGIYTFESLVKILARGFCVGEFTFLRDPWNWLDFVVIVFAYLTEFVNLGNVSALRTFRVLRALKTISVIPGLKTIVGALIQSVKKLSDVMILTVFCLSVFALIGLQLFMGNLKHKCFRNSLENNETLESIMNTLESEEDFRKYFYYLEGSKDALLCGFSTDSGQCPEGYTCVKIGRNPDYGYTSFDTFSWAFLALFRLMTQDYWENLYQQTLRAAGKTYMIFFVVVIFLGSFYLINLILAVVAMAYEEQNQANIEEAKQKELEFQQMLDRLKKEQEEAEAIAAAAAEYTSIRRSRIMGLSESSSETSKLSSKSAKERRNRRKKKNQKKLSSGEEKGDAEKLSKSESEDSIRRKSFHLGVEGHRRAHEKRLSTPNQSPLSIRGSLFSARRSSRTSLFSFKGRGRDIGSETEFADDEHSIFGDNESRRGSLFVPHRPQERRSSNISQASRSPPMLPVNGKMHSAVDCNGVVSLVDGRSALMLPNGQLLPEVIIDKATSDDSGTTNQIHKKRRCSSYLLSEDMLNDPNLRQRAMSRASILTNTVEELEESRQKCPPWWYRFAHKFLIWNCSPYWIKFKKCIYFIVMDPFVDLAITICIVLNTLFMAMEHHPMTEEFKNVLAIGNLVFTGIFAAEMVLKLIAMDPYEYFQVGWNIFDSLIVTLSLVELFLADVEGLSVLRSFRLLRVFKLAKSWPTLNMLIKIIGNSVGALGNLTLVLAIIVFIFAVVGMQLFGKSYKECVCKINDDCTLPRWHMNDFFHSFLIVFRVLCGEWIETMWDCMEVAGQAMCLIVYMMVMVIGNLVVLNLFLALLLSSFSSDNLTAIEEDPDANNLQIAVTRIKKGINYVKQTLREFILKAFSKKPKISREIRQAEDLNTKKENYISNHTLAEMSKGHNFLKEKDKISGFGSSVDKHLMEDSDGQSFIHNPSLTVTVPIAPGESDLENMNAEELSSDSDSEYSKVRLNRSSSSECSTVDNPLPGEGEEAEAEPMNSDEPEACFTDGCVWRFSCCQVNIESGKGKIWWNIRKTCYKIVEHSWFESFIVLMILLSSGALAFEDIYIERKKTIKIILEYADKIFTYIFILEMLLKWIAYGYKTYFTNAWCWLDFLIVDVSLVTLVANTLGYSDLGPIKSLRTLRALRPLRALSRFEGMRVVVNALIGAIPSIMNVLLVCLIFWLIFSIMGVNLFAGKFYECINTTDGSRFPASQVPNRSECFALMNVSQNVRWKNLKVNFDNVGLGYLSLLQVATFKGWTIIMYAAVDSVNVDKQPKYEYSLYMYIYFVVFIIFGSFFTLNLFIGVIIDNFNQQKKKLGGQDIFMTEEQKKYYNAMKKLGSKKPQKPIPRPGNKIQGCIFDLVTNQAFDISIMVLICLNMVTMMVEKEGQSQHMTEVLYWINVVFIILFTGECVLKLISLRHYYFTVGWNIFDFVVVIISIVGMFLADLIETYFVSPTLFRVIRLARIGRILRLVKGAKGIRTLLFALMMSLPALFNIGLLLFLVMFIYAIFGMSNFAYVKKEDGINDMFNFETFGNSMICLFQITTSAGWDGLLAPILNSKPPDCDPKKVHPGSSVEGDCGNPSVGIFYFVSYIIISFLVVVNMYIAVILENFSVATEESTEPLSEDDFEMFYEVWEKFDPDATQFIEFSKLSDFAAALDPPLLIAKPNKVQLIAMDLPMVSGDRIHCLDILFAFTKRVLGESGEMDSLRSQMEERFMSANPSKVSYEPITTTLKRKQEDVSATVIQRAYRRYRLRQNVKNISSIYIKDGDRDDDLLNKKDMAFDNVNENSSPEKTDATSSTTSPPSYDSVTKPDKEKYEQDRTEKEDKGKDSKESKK
# T14 sequence (O75762 whole entry): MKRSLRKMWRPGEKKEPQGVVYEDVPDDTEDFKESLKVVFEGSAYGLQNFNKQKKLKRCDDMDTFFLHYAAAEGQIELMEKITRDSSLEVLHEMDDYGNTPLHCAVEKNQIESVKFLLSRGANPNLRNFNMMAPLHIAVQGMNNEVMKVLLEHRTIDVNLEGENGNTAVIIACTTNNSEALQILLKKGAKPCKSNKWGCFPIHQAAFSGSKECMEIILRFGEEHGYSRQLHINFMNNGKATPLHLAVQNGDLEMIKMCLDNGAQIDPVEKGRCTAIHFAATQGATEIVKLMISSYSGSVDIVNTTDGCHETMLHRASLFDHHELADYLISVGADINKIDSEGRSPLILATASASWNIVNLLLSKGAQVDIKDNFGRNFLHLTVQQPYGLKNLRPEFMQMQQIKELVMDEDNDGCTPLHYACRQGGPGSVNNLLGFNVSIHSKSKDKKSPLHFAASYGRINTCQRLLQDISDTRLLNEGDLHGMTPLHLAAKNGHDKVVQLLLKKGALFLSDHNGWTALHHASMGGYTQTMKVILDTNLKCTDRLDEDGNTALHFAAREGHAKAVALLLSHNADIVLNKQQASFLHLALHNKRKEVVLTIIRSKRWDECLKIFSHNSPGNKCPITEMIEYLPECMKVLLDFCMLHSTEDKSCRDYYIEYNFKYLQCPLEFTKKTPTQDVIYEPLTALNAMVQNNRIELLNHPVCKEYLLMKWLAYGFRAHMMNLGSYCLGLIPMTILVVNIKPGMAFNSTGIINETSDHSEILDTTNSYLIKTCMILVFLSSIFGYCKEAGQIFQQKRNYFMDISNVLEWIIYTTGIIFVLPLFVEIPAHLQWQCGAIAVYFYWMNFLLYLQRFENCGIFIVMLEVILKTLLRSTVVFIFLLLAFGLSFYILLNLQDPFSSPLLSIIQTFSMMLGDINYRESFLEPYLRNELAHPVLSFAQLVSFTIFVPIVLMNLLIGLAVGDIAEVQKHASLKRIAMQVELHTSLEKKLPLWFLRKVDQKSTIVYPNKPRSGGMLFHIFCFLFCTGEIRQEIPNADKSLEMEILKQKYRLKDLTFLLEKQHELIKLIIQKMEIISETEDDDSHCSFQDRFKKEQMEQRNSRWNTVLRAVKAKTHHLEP
substance,measurement,setting,value
26 (GSVVIGQRCYRSPDCYSACKKLVGKATGKCTNGRCDC) [compound 26],Activity of 5HT3a with peptide (percentage of the reference compound),5HT3a,96%
same,"Activity of 5HT3a with peptide, expressed as a percentage of the reference compound",5HT3a,82%
same,"Activity of a3b4 with peptide, expressed as a percentage of the reference compound",α3β4; peptide at 0.2 μM,88%
same,Activity of a3b4 with peptide (percentage of the reference compound),α3β4; peptide at 20 μM,91%
same,"Activity of a4b2 with peptide, expressed as a percentage of the reference compound",α4β2; peptide at 0.2 μM,85%
same,Activity of a4b2 with peptide (percentage of the reference compound),α4β2; peptide at 20 μM,89%
same,"Activity of Cav2.1 with peptide, expressed as a percentage of the reference compound",Cav2.1; peptide at 0.2 μM,115%
same,Activity of Cav2.1 with peptide (percentage of the reference compound),Cav2.1; peptide at 20 μM,85%
same,"Activity of Cav2.2 with peptide, expressed as a percentage of the reference compound",Cav2.2; peptide at 0.2 μM,103%
same,Activity of Cav2.2 with peptide (percentage of the reference compound),Cav2.2; peptide at 20 μM,121%
same,"Activity of Kv2.1 with peptide, expressed as a percentage of the reference compound",Kv2.1; peptide at 0.2 μM,98%
same,Activity of Kv2.1 with peptide (percentage of the reference compound),Kv2.1; peptide at 20 μM,102%
same,"Activity of GABA with peptide, expressed as a percentage of the reference compound",GABA; peptide at 0.2 μM,117%
same,Activity of GABA with peptide (percentage of the reference compound),GABA; peptide at 20 μM,106%
same,"Activity of Nav1.5 with peptide, expressed as a percentage of the reference compound",Nav1.5; [1],92%
same,"Activity of Nav1.5 with peptide, expressed as a percentage of the reference compound",Nav1.5; [2],91%
same,Activity of Nav1.5 with peptide (percentage of the reference compound),Nav1.5; [1],90%
same,Activity of Nav1.5 with peptide (percentage of the reference compound),Nav1.5; [2],94%
same,"Activity of hERG with peptide, expressed as a percentage of the reference compound",hERG; peptide at 0.2 μM,80%
same,Activity of hERG with peptide (percentage of the reference compound),hERG; peptide at 20 μM,74%
same,"Activity of Kir2.1 with peptide, expressed as a percentage of the reference compound",Kir2.1; peptide at 0.2 μM,102%
same,Activity of Kir2.1 with peptide (percentage of the reference compound),Kir2.1; peptide at 20 μM,93%
same,"Activity of Kv1.1 with peptide, expressed as a percentage of the reference compound",Kv1.1; peptide at 0.2 μM,66%
same,Activity of Kv1.1 with peptide (percentage of the reference compound),Kv1.1; peptide at 20 μM,85%
same,"Activity of Kv1.2 with peptide, expressed as a percentage of the reference compound",Kv1.2; peptide at 0.2 μM,79%
same,Activity of Kv1.2 with peptide (percentage of the reference compound),Kv1.2; peptide at 20 μM,47%
same,"Activity of Kv1.3 with peptide, expressed as a percentage of the reference compound",Kv1.3; peptide at 0.2 μM,94%
same,Activity of Kv1.3 with peptide (percentage of the reference compound),Kv1.3; peptide at 20 μM,77%
same,"Activity of Nav1.7 with peptide, expressed as a percentage of the reference compound",Nav1.7; [3],81%
same,"Activity of Nav1.7 with peptide, expressed as a percentage of the reference compound",Nav1.7; [4],74%
same,Activity of Nav1.7 with peptide (percentage of the reference compound),Nav1.7; [3],73%
same,Activity of Nav1.7 with peptide (percentage of the reference compound),Nav1.7; [4],60%
same,"Activity of NR2A with peptide, expressed as a percentage of the reference compound",NR2A; peptide at 0.2 μM,113%
same,Activity of NR2A with peptide (percentage of the reference compound),NR2A; peptide at 20 μM,114%
same,"Activity of NR2B with peptide, expressed as a percentage of the reference compound",NR2B; peptide at 0.2 μM,86%
same,Activity of NR2B with peptide (percentage of the reference compound),NR2B; peptide at 20 μM,79%
same,"Activity of TRPA1 with peptide, expressed as a percentage of the reference compound",TRPA1; peptide at 0.2 μM,109%
same,Activity of TRPA1 with peptide (percentage of the reference compound),TRPA1; peptide at 20 μM,115%
same,"Activity of TRPV1 with peptide, expressed as a percentage of the reference compound",TRPV1; peptide at 0.2 μM,116%
same,Activity of TRPV1 with peptide (percentage of the reference compound),TRPV1; peptide at 20 μM,92%

# Source: patent publication US20200262877A1, “ION CHANNEL-BINDING PEPTIDES AND METHODS OF USE THEREOF” (priority 2017, published 2020)
